Assay results from the RNAGym collection of RNA variant scans (doi:10.1073/pnas.2313332121).

B1: TPR t1 (parent)
chain: GACCAAUCUGCCCUCAGAGCUCGAGAACAUCUUCGGAUGCAGAGGAGGCAGGCUUCGGUGGCGCGAUAGCGCCAACGUCCUCAACCUCCAAUGCAUCCCACCACAUGAUGAUGCCUGAAGAGCCUUGGUUUUUUG

Variants of: B1
Assay: polymerase ribozyme fitness, log enrichment relative to wild type (log ratio); higher = more active; in vitro selection for triplet polymerase activity
How it was run: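 Mutant libraries were PCR-built and transcribed for each subunit of a heterodimeric triplet polymerase ribozyme and selected for one round in triplicate at −7 °C, frozen, before gel excision of extended constructs and streptavidin-bead capture. Input and output libraries were Illumina-sequenced, keeping genotypes with ≥10 input reads and ≥1 read per output. Fitness is a logarithmic ratio of genotype to wild-type enrichment, in base 2, using inverse-variance-weighted replicate averages.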

| Variant | polymerase ribozyme fitness (log ratio) |
| --- | --- |
| G17U A74U | -3.16 |
| A18C A95C G128U | -5.8 |
| A18C C20U C114A | 0.845 |
| A18G G45U C102U U109C U116G | -5.64 |
| C20A C53A U59A | -2.85 |
| G19A G60C A75U A90C C98U C114A | -3.78 |
| C20A C72A C101A | -5.69 |
| G19A U78G A84U C115U A121C | -5.73 |
| C20A C73A | -2.14 |
| A18U G42A C53G C85U C89A | -3.31 |
| C20A G42U G120A | -3.01 |
| A18C G120A | -1.48 |
| A18U A27G C72A C115A G120C | -3.08 |
| G19A A43U C49U C124U | -2.19 |
| A18G U87G U109A | -2.3 |
| A18U G48U G52U G69U C79G | -2.76 |
| G19C U87A | -2.58 |
| A18C C53A C62U C72U C85G G122U | -4.78 |
| A18C G39A | -3.32 |
| G19U U87G G110C U112G | -6.7 |
| C20A C49G | -2.27 |

| Variant | polymerase ribozyme fitness (log ratio) |
| --- | --- |
| G17U C124A | -1.01 |
| G19A G61A U125G | -2.54 |
| G17U U21A | -3.26 |
| G19U G61C | -4.85 |
| C20A G61A C80G U109A G113U U133G | -7.36 |
| G19A C88A A95C C114G | -4.8 |
| G19U C20U C72A U131A | -3.4 |
| C20A C28A G47C C97U G110C | -6.66 |
| C20A G42A G57U A100C | -6.04 |
| A18C C40G | -4.09 |
| A18U C28U G51A U59G G117C | -6.92 |
| G19C G42U U92A | -2.69 |
| G17C G61U G93U C114A G127U | -6 |
| G17U C62G | -3.93 |
| G19U A50U | -3.48 |
| G17U C102U | -4.64 |
| A18C G35A U59C U112A | -6.14 |
| A18G G39C | -4.37 |
| A18G A50U C56A C79A C101U A118U C124U | -7.24 |
| A18C A29G G107U C124G U125C | -7.59 |
| A18U U38G G71A C89A U129A | -6.64 |

| Variant | polymerase ribozyme fitness (log ratio) |
| --- | --- |
| A18G C123U U132A | -2.14 |
| G17U A18U G35C C72G G77U A103U U112G | -6.95 |
| G19A G36U | -3.84 |
| A18U G52A C72A C73A U112A | -3.87 |
| A18C U92C C97U | -4.36 |
| A18U G57U C94G U112G | -5.68 |
| G17U C70U | -3.3 |
| C20A C85G | -3.75 |
| A18G A46G C72U | -4.38 |
| A18U C124A U126A | -1.36 |
| G17U A18U G39U C123A | -4.71 |
| A18C A26G G71A G93A U112C G122A | -4.45 |
| G19A G71C C124A | -2.56 |
| C20A C34A A41C G69U C73U | -5.14 |
| G17U A24G A26G U112A | -6.66 |
| G17U G63C C73U | -1.67 |
| A18C C49U C72G | -3.75 |
| G19U C124U | -1.97 |
| G19A G93U | -4.24 |
| G17U C89U | -1.77 |
| A18G G44A C72G | -5.19 |

| Variant | polymerase ribozyme fitness (log ratio) |
| --- | --- |
| A18C A37C G127U U129A | -3.43 |
| C20A G44U | -4.1 |
| A18C G44U | -3.35 |
| A18U C114A | -2.02 |
| A18U C114G | -4.17 |
| C20A A50G G52A C124A | -1.12 |
| G17U C101A G107U G120C G127A U132C | -6.51 |
| A18G C56G C114A | -4.99 |
| G19U C20U U106C | -2.36 |
| G19U A43C | -3.38 |
| A18C U32C A95C G117A U129C | -3.97 |
| A18C G19U | -5.8 |
| G19U C20G G57U C70G C85U C101U U112G | -6.53 |
| G17U A37C | -2.42 |
| G17U A37U | -2.44 |
| A18G C64U G113A | -1.65 |
| A18U C79A | -4.95 |
| A18U U21C G36A C72U C114U | -4.3 |
| A18C A27G | -5.05 |
| G19A C34A C89A | -6.24 |
| C20A G45A | -2.28 |
